# ± gives the standard deviation of the averaged measurements.
# Test system: ATP
# Assay: switch fluorescence ratio, 500 uM ATP over buffer (Cy3 cluster intensity, sum of 5 cycles each) (fold (ratio)); higher = stronger signal-on switching upon ATP binding; sequences stand for … in TCGTCGGCAGCGTCAGATGTGTATAAGAGACAGTTTTTTTTTTTTTTTTTTTTTTTTT…TC
# Settings: aptamer strand: ATP DNA aptamer (quencher-CACCTGGGGGAGTATTGCGGAGGAAGG + anchor), 100 nM annealed; ATP concentration: 500 uM
# Summary of the method: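 Five buffer/ATP imaging cycles were run on Cy3-labelled switching-strand clusters on a modified Illumina MiSeq flow-cell, with NaOH stripping and re-annealing between cycles. In each cycle, clusters annealed to 100 nM quencher-labelled ATP aptamer were imaged in selection buffer, then after 15 min with 500 uM ATP at 22 °C. Per cluster, the fluorescence ratio is summed target-cycle over summed buffer-cycle Cy3 intensity, averaged per switch-domain sequence. Only clusters within 100-1000 RFU were kept.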
# 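Also: ATP exposure 15 min at 22 °C before imaging.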
row,Sequence,switch fluorescence ratio
1,TTCCGAGGG,1.102 ± 0.011
2,TTCCGCGCAG,1.18 ± 0.016
3,TTCCGGCTAT,1.15 ± 0.064
4,TTCCGGGTG,3.14 ± 0.75
5,TTCCGGGTGA,1.23 ± 0.31
6,TTCCGGGTTG,1.34 ± 0.35
7,TTCCGTCTAT,1.08 ± 0.086
8,TTCCGTTGCG,1.16 ± 0.2
9,TTCCGTTTGA,1.24 ± 0.42
10,TTCCTAAAGT,0.9622 ± 0.0039
11,TTCCTATCGT,1.046 ± 0.0022
12,TTCCTATTGA,0.99 ± 0.049
13,TTCCTATTTT,1 ± 0.029
14,TTCCTCCCCC,1.94 ± 0.68
15,TTCCTCCCGT,2.01 ± 0.95
16,TTCCTGGCAT,1.45 ± 0.42
17,TTCCTGGCCT,1.02 ± 0.033
18,TTCCTGTGAT,1.22 ± 0.27
19,TTCCTGTGGG,1.02 ± 0.061
20,TTCCTTGGTG,1.94 ± 0.89
21,TTCCTTGGTT,1.01 ± 0.012
22,TTCCTTTAAA,1.07 ± 0.065
23,TTCGAACGGG,1.01 ± 0.016
24,TTCGACTCCT,1.09 ± 0.087
25,TTCGAGCTTC,1.07 ± 0.034

row,Sequence,switch fluorescence ratio
1,TTCGAGGAAT,1.08 ± 0.099
2,TTCGAGGGTA,0.974 ± 0.036
3,TTCGAGTAGT,0.998 ± 0.03
4,TTCGAGTCCG,1.03 ± 0.06
5,TTCGAGTGTC,1.05 ± 0.034
6,TTCGAGTTTG,0.9843 ± 0.0032
7,TTCGATAGTT,1.89 ± 1.2
8,TTCGATTTAT,1.03 ± 0.024
9,TTCGCACCGG,1.021 ± 0.0073
10,TTCGCAGGGT,1.039 ± 0.0029
11,TTCGCAGGTT,1.05 ± 0.075
12,TTCGCATAAT,1.62 ± 0.3
13,TTCGCATCTA,1.15 ± 0.056
14,TTCGCGAAAT,1.027 ± 0.01
15,TTCGCGGGGG,0.979 ± 0.011
16,TTCGCGGTTA,1 ± 0.03
17,TTCGCTAGTG,0.98 ± 0.033
18,TTCGCTTAGG,0.993 ± 0.026
19,TTCGGAAAGA,1.013 ± 0.0082
20,TTCGGAATTA,0.995 ± 0.0066
21,TTCGGACTTC,0.976 ± 0.064
22,TTCGGAGTT,1.04 ± 0.017
23,TTCGGAGTTT,1.01 ± 0.12
24,TTCGGCAATG,1.39 ± 0.38
25,TTCGGCAGTA,1 ± 0.025

row,Sequence,switch fluorescence ratio
1,TTCGGCGAGA,0.989 ± 0.021
2,TTCGGCGGCA,1.02 ± 0.036
3,TTCGGCGGTA,0.995 ± 0.011
4,TTCGGGAGGA,0.971 ± 0.038
5,TTCGGGCTAG,1.013 ± 0.0052
6,TTCGGGGAGG,1.02 ± 0.019
7,TTCGGGGATT,1.37 ± 0.58
8,TTCGGGGGAC,1.13 ± 0.14
9,TTCGGGGGTT,1.01 ± 0.051
10,TTCGGGGTGC,2.17 ± 1.6
11,TTCGGGGTGT,1.01 ± 0.044
12,TTCGGGTGGC,1.02 ± 0.051
13,TTCGGGTGTT,0.9932 ± 0.0029
14,TTCGGTATGC,0.98 ± 0.047
15,TTCGGTGGAG,0.96 ± 0.081
16,TTCGGTGTTG,0.969 ± 0.045
17,TTCGTAAGGG,1.012 ± 0.01
18,TTCGTACGTA,1 ± 0.06
19,TTCGTACTTT,1 ± 0.043
20,TTCGTAGGGC,1.01 ± 0.055
21,TTCGTAGTGA,1.18 ± 0.025
22,TTCGTATGTT,1.03 ± 0.05
23,TTCGTATTTT,0.992 ± 0.026
24,TTCGTCAATC,2.17 ± 1.3
25,TTCGTCGCTG,0.999 ± 0.037

row,Sequence,switch fluorescence ratio
1,TTCGTCTACA,0.98 ± 0.021
2,TTCGTCTGCT,1.02 ± 0.024
3,TTCGTGCATC,1.06 ± 0.026
4,TTCGTGGAAT,0.977 ± 0.028
5,TTCGTTATCT,0.981 ± 0.015
6,TTCGTTATGG,1 ± 0.046
7,TTCGTTTGTC,1 ± 0.02
8,TTCGTTTGTG,0.971 ± 0.027
9,TTCGTTTGTT,1.34 ± 0.56
10,TTCTAAACGT,1.06 ± 0.078
11,TTCTAAATGT,0.9995 ± 0.0021
12,TTCTAATGTA,0.993 ± 0.021
13,TTCTAATTAT,0.981 ± 0.019
14,TTCTAGCCTT,1.043 ± 0.00045
15,TTCTATATAT,1.01 ± 0.035
16,TTCTATCCTA,1.02 ± 0.012
17,TTCTATGTTT,0.996 ± 0.0094
18,TTCTATTATA,0.977 ± 0.018
19,TTCTATTGGT,0.9828 ± 0.0023
20,TTCTCCCGGG,1.29 ± 0.068
21,TTCTCGAATT,1.01 ± 0.039
22,TTCTCGGATG,0.995 ± 0.015
23,TTCTCGTCAA,5.06 ± 0.96
24,TTCTCGTGGC,0.96 ± 0.029
25,TTCTCGTGTG,0.974 ± 0.035

row,Sequence,switch fluorescence ratio
1,TTCTCTTTTG,0.993 ± 0.031
2,TTCTGACGG,1.48 ± 0.55
3,TTCTGAGGAT,0.989 ± 0.042
4,TTCTGAGGTA,1.01 ± 0.03
5,TTCTGCTGCT,1.02 ± 0.02
6,TTCTGCTTTC,1.11 ± 0.03
7,TTCTGGGAAA,0.9997 ± 0.0057
8,TTCTGGTGAT,0.999 ± 0.021
9,TTCTGTCTGG,0.994 ± 0.021
10,TTCTGTCTGT,1.05 ± 0.052
11,TTCTGTGCGG,0.978 ± 0.029
12,TTCTGTTAGC,1.03 ± 0.043
13,TTCTGTTCTG,1.01 ± 0.039
14,TTCTGTTGGG,0.984 ± 0.013
15,TTCTGTTTTG,1.01 ± 0.029
16,TTCTTAAACA,1.02 ± 0.013
17,TTCTTAAATT,0.981 ± 0.019
18,TTCTTAATTT,1 ± 0.025
19,TTCTTATAGA,1.0069 ± 1.4e-05
20,TTCTTCATTT,1.22 ± 0.26
21,TTCTTGGTCT,1.009 ± 0.0067
22,TTCTTGGTG,1.02 ± 0.072
23,TTCTTGTGTT,0.993 ± 0.042
24,TTCTTTACAC,1.039 ± 0.0025
25,TTCTTTAGAG,0.987 ± 0.055

row,Sequence,switch fluorescence ratio
1,TTCTTTCCGT,1.06 ± 0.026
2,TTCTTTCGAG,1.026 ± 0.0045
3,TTCTTTCTGT,0.998 ± 0.0026
4,TTCTTTGACG,1.09 ± 0.077
5,TTCTTTGAGA,1.006 ± 0.0062
6,TTCTTTGGCA,1.052 ± 0.0061
7,TTCTTTTCGT,0.979 ± 0.041
8,TTGAAACTTG,0.952 ± 0.018
9,TTGAAAGGAG,1 ± 0.026
10,TTGAAATGGT,0.987 ± 0.018
11,TTGAAATGTG,1.01 ± 0.017
12,TTGAACACGG,1.02 ± 0.034
13,TTGAACGGGG,0.9933 ± 0.0035
14,TTGAACTACT,1.03 ± 0.016
15,TTGAACTTTG,0.978 ± 0.061
16,TTGAAGAAGT,0.9724 ± 0.0095
17,TTGAAGCAGC,1.45 ± 0.2
18,TTGAAGCGGT,1.09 ± 0.11
19,TTGAAGCGTT,0.996 ± 0.018
20,TTGAAGGGGG,0.993 ± 0.035
21,TTGAAGGGTC,0.981 ± 0.057
22,TTGAAGGTCA,1.02 ± 0.015
23,TTGAAGGTCT,1 ± 0.05
24,TTGAAGGTTA,0.99 ± 0.016
25,TTGAAGTAGT,1.03 ± 0.1

row,Sequence,switch fluorescence ratio
1,TTGAAGTCTA,0.992 ± 0.027
2,TTGAAGTTGT,1.01 ± 0.039
3,TTGAATCGCG,1.0115 ± 0.00023
4,TTGAATTGGG,0.999 ± 0.046
5,TTGAATTGGT,0.995 ± 0.036
6,TTGAATTTAA,0.981 ± 0.025
7,TTGACACGGG,1.11 ± 0.025
8,TTGACCCGAC,1.4 ± 0.39
9,TTGACCCGGT,1.06 ± 0.085
10,TTGACCGACT,0.973 ± 0.043
11,TTGACGAGCG,1.13 ± 0.051
12,TTGACGCGTC,1.02 ± 0.018
13,TTGACGTTTC,1.02 ± 0.033
14,TTGACTAGCT,1.08 ± 0.09
15,TTGACTGTAG,0.982 ± 0.013
16,TTGACTTATT,1 ± 0.043
17,TTGAGACAGG,1.0131 ± 0.00096
18,TTGAGATCCA,0.9929 ± 0.0085
19,TTGAGATCCG,0.986 ± 0.053
20,TTGAGATGGA,1.01 ± 0.0062
21,TTGAGATGTT,1.01 ± 0.025
22,TTGAGCCTCC,1.2 ± 0.15
23,TTGAGCGGTC,1.1 ± 0.022
24,TTGAGCTAGT,1 ± 0.032
25,TTGAGGCACG,1.04 ± 0.042

row,Sequence,switch fluorescence ratio
1,TTGAGGGCGG,1.005 ± 0.0098
2,TTGAGGGGAG,1.01 ± 0.012
3,TTGAGGGGCA,1.01 ± 0.033
4,TTGAGGGTCG,0.995 ± 0.035
5,TTGAGGTC,1 ± 0.029
6,TTGAGTATGG,0.976 ± 0.028
7,TTGAGTCCTT,1.04 ± 0.022
8,TTGAGTGTCA,0.9852 ± 0.007
9,TTGAGTTGCG,0.986 ± 0.028
10,TTGAGTTGGT,0.95 ± 0.025
11,TTGAGTTTAC,1.058 ± 0.0028
12,TTGAGTTTGC,1 ± 0.051
13,TTGATACATA,1.03 ± 0.017
14,TTGATAGATG,0.975 ± 0.028
15,TTGATCGGTT,1.002 ± 0.00027
16,TTGATGAAAT,0.984 ± 0.014
17,TTGATGAAGT,1.01 ± 0.031
18,TTGATGAATT,1.01 ± 0.017
19,TTGATGACGT,0.9932 ± 0.0075
20,TTGATGAGGA,0.978 ± 0.048
21,TTGATGATAT,0.986 ± 0.019
22,TTGATGCAAA,1.01 ± 0.05
23,TTGATGCCGG,1.05 ± 0.049
24,TTGATGGGAG,1.07 ± 0.12
25,TTGATGGTTG,0.964 ± 0.021

# — the supplement of paper PMC10126150
